In assay [1] the target is T1, purified human α5β1-integrin (Homo sapiens, UniProt P05556+P08648).
T1 construct: purchased Chemicon International (Temecula, Calif.)
In words: Solid phase dot-ELISA: α5β1-integrin binding to immobilized uPAR peptides and suPAR. As to conditions: for α5β1-integrin binding to immobilized peptide: peptide immobilized on nitrocellulose, α5β1-integrin 750 ng/ml; for reduction of integrin binding to immobilized uPAR: α5β1-integrin pre-incubated 15 min with 100 fold molar excess of peptide, suPAR 1.5 μg. How it is done:
FIGS. 1A-H show the interaction between α5β1-integrin and immobilized uPAR and uPAR-derived synthetic peptides through solid-phase dot-ELISA. […] Bound integrin was detected with anti-α5 integrin antibody followed by goat anti-rabbit IgG (H+L) HRP conjugated secondary antibody and developed with enhanced chemiluminescence (“ECL”). FIG. 1B is a graph showing that binding of integrin to suPAR is saturable. SuPAR (1.5 μg) was immobilized on nitrocellulose membrane in triplicates, incubated with 0, 0.1, 0.5, 1, 2, and 4 μg/ml of α5β1-integrin and tested for integrin binding as in FIG. 1A. The dots were scanned with NIH Image. Mean and SE are shown. […] Peptides representing regions located in each of the three uPAR-domains were immobilized, incubated with α5β1-integrin, and analyzed as in FIG. 1A. Only peptide 240-248 binds α5β1-integrin. FIG. 1D is a graph showing that peptide 240-248 inhibits integrin binding to suPAR. The α5β1-integrin (750 ng/ml) was pre-incubated for 15 min at room temperature with 100 fold molar excess of 240-248 or 17-24 peptides, or with no peptide (Control) and the mixtures were applied to immobilized suPAR (1.5 μg), 2 dots per mixture, and developed as in FIG. 1A. The dots were scanned with NIH Image. The results (bars) show % of control, the lines show range. FIG. 1E is a graph showing binding of α5β1- and α3β1-integrin to suPAR and peptide 240-248. Dot-ELISA was performed in duplicate as in FIG. 1A, except that purified α5β1-integrin and α3β1-integrin (750 ng/ml) were used. Bound integrins were detected with the appropriate previously titrated antibodies followed by goat anti-rabbit IgG (H+L) HRP conjugated secondary antibody and detection with ECL. The graph represents the mean and range of two values: α5β1-integrin binding to peptide 240-248 (▪) or SuPAR (▴); α3β1-integrin binding to peptide 240-248 ([…]) and SuPAR (x). […] Peptide 240-248 (domain III), 17-24 (domain I), and the S245A mutant of peptide 240-248 were immobilized and tested for integrin binding as in FIG. 1A. FIGS. 1G-H show the crystal structure of human uPAR shown as a surface representation. The three individual domains of uPAR in FIG. 1G are indicated as follows: D1 is on the right side, DII is on the top of the model, and Diii is on the left of the model. In FIG. 1H, the order of the domains is inversed. […] The location of the COOH-terminal in uPAR domain III harboring the GPI-anchor is indicated by the arrow (FIG. 1H). FIGS. 1G-H were created by the program PyMol (DeLano Scientific) using the coordinates 1YWH.
FIGS. 2A-B show solid phase dot-ELISA of suPAR. […] Binding was detected as in FIG. 1A and the dots were scanned with NIH Image. Mean of the two-scanned value for each suPAR concentration are shown in the bottom panel. Mutation of residues in the 239-249 sequence reduced the integrin binding by ˜50 to 94%. suPAR^E33A (▪), suPAR^wt (▴), suPAR^R239A (♦), suPAR^H249A (x), suPAR^Q248A (∘), suPAR^M246A ([…]), suPAR^S245A (□).
Synthetic uPAR-derived peptides and mutant proteins were diluted to 0.5, 1, and 2 μg/100 μl of PBS. […] The strips, pinned to the bottom of a plastic box, were washed with TBS with 0.1% Tween 20, overlaid with 500 μl of rabbit anti-integrin α5 polyclonal antibody (1:650) for 1 hr at RT, washed with TBST twice, incubated with goat anti-rabbit IgG (H+L) HRP conjugated secondary antibody (1:2000) for 1 hr, washed 3 times with TBST, and developed with ECL. The dots were scanned with NIH image.

The subject of a further assay is T-HEp3 cells. In words: Adhesion assay to fibronectin, T-HEp3 cells. The format is cell-based, human. As to conditions: peptide 20 or 200 μM, 15 min.
Assay [2] concerns the target T2, α5β1-integrin/uPAR complex (Homo sapiens, UniProt P05556+P08648).
T2 construct: endogenous in cells; host or cells: T-HEp3 (human epidermoid carcinoma) cell lysate
In words: Disruption of preformed uPAR/α5β1-integrin complex (co-immunoprecipitation). Type of assay: biochemical. As to conditions: cell lysates incubated with 20 μM peptide, 20 min at 4° C., pull-down with anti-α5β1 (HA5). How it is done: FIGS. 5A-B show the physical interaction between uPAR and α5β1-integrin. […] D-HEp3 cells were transfected with vector (pcDNA3.1) alone or with constructs expressing uPAR^wt or uPAR^S245A and after 48 hrs the cells were surface biotinylated and lysed as described in the Examples. Half of each lysate (0.8 mg of protein) was immunoprecipitated with 5 μg monoclonal anti-uPAR(R3) antibody and half with 5 μg monoclonal anti-α5β1-integrin (HA5) antibody. Isotype-matched IgG served as negative control. The immunoprecipitates were separated on an SDS-PAGE and the bands were detected with streptavidin-HRP conjugate and ECL. […] The numbers represent uPAR precipitated by anti-α5β1 antibody as percent of total uPAR. The experiment was repeated 5 times using the same and additional anti-integrin and anti-uPAR antibodies with essentially similar results. FIG. 5B is a graph showing the disruption of uPAR and α5β1-integrin complex with peptides 240-248 and S245A. T-HEp3 cells were surface biotinylated and lysed as described in the Examples. The lysate was precleared with isotype-matched IgG and aliquots containing 0.8 mg protein were incubated with peptides 240-248 and S245A (5 μM and 20 μM) or without peptides (Control, C) for 20 min at 4° C. followed by IP with 5 μg of monoclonal anti-α5β1-integrin (HAS) antibody for 90 min. The immunoprecipitates were analyzed as in FIG. 5A and scanned with NIH Image. […]

T1 sequence (P08648 42-894 limits assumed): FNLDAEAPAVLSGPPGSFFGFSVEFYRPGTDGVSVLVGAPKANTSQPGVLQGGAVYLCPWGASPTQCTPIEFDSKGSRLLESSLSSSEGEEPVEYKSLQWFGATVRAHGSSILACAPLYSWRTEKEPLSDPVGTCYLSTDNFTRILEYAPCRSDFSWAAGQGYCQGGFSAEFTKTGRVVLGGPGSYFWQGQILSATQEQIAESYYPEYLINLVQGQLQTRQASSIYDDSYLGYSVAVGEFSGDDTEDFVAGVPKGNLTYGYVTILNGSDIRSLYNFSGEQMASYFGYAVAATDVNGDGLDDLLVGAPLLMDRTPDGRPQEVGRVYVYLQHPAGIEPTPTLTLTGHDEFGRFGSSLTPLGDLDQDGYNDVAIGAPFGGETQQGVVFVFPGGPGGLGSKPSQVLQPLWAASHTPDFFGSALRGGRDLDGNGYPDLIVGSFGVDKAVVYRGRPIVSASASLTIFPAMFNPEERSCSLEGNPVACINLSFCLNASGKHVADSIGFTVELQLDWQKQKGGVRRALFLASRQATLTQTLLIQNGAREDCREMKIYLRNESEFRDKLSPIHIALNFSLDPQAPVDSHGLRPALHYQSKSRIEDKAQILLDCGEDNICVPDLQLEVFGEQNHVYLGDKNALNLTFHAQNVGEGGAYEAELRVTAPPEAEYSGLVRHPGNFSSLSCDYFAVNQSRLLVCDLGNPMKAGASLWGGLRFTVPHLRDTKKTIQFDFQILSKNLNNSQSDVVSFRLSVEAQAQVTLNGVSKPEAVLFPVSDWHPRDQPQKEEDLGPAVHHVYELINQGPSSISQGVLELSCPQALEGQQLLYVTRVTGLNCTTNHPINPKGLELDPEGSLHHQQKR
T1 sequence (P08648 895-1049 limits assumed): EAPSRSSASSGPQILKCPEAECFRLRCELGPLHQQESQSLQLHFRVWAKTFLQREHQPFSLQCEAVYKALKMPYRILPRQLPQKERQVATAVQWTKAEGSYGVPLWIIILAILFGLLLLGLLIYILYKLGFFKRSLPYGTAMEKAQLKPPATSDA
T1 sequence (P05556 21-798): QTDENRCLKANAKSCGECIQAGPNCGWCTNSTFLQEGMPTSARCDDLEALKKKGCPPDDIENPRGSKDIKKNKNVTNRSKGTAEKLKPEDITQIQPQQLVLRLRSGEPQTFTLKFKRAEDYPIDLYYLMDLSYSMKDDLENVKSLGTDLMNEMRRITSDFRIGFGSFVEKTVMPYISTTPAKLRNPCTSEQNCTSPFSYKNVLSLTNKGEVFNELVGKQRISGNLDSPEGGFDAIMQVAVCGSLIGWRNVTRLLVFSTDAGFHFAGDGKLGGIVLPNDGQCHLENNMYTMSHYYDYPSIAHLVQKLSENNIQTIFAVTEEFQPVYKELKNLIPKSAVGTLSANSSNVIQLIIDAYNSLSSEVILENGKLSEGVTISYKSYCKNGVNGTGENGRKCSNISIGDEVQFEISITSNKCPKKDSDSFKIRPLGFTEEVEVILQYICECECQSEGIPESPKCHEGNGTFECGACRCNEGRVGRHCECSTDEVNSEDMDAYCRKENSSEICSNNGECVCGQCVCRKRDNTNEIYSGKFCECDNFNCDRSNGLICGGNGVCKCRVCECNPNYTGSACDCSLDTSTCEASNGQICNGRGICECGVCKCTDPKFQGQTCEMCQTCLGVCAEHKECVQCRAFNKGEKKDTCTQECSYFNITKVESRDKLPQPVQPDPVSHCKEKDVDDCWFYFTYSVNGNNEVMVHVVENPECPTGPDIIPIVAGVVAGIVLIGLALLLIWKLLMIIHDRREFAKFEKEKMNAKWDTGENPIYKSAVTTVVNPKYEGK
T2 sequence (P08648 42-894 limits assumed): as the sequence (P08648 42-894 limits assumed) above
T2 sequence (P08648 895-1049 limits assumed): as the sequence (P08648 895-1049 limits assumed) above
T2 sequence (P05556 21-798): as the sequence (P05556 21-798) above

“peptide 17-24: synthetic uPAR-derived peptide, domain I amino acid 17-24: CALGQDLC (SEQ ID NO:5); negative control [reference compound]”: in assay [1], the “α5β1-integrin binding to immobilized peptide” value was “no binding” and the “reduction of integrin binding to immobilized uPAR” value is given as “negligible effect”. Moreover, in the assay on T-HEp3 cells, the adhesion to fibronectin result was “no effect”.

Consider “peptide 240-248: synthetic uPAR-derived peptide, domain III residues 240-248: GCATASMCQ (SEQ ID NO:9)”, for which, in assay [1], the “α5β1-integrin binding to immobilized peptide” value is listed as “bound α5β1-integrin in a dose-dependent fashion” and the “reduction of integrin binding to immobilized uPAR” value is on record as “more than 70%”. In addition, the “disruption of preformed uPAR/integrin complex” value in assay [2] is given as “disrupted”. Besides, the adhesion to fibronectin result in the assay on T-HEp3 cells is reported as “reduced adhesion to fibronectin”.
